Source: patent publication US20160009795A1 (BIOCARE MEDICAL, published 2016)

Columns and labels:
[1] = target: T1, p40 peptide amino acids 1-17 (MLYLENNAQTQFSEPQY) (human); assay: epitope mapping, peptide ELISA and dot blot
T1 peptide: MLYLENNAQTQFSEPQY
From the text: (§1) In order to determine the peptide sequence of p40 that is recognized by anti-p40 antibodies such as BC28, epitope mapping may be conducted perhaps using two assays: direct ELISA and even dot blot. In an ELISA assay, the sensitivity and specificity of the anti-p40 [BC28] antibody may be determined by measuring the antibody titer at about 1:500 and about 1:1000. Overlapping peptides at a length of about 15 amino acids each, covering the human p40 protein sequence from perhaps 1 to 17 amino acids, may be used to determine a sequence of BC28 binding.

[2] = target: T2, p40 peptide amino acids 1-9 (MLYLENNAQ) (human); assay: epitope mapping, peptide ELISA and dot blot
T2 peptide: MLYLENNAQ
From the text: as §1

- binding result [1]: binds
- binding result [2]: binds
B1: mouse monoclonal anti-p40 antibody BC28 (antibody, mouse IgG1, V domains shown)
VH: GVKLVESGGGFVKPGGSLTLSCAASGFTFSIYAMSWVRQTPEKRLEWVTSISSGDDIFYPDNLKGQFTISRDNARNILYLQMSSLRSEDTAIYYCVRHGYNATDYWGQGTSVTVSS
VL: DVLMTQTPLSLPVSLGDQASISCRSSQSIVYSNGNTYLEWYLQKPGQSPKLLIYKVSNRFSGVPDRFSGSGSGTDFTLKISRVEAEDLGVYYCFQGSHVPFTFGSGTKLEIK
notes: also called p40 [BC28]; p40 (M)
